Results published in patent US6548060 (dated 2003).

Experiments:
human Daxx, full-length = biological target: T1, human Daxx, full-length (human, UniProt Q9UER7 1-740); assay: summary of the experiments in the legend of FIG. 1
T1 construct: range 1-740; Expressed from pcDNA3 in 293 cells for co-IP; also called B42-Daxx; pcDNA3-Daxx

[1] = biological target: T2, ASK1 (apoptosis signal-regulating kinase), full-length (UniProt Q99683 1-1374, limits assumed); assay: co-immunoprecipitation with anti-HA antibody from 293 cells (FIG. 3A)
T2 construct: Full-length; LexA fusion in yeast two-hybrid; HA-tagged (pcDNA3-HA-ASK1, gift of Dr. Ichijo) in 293 cells for co-IP and the MBP kinase assay; Flag-tagged in the GST-SEK1 kinase assay; also called ASK1-F; HA-ASK1
T2 sequence (looked up): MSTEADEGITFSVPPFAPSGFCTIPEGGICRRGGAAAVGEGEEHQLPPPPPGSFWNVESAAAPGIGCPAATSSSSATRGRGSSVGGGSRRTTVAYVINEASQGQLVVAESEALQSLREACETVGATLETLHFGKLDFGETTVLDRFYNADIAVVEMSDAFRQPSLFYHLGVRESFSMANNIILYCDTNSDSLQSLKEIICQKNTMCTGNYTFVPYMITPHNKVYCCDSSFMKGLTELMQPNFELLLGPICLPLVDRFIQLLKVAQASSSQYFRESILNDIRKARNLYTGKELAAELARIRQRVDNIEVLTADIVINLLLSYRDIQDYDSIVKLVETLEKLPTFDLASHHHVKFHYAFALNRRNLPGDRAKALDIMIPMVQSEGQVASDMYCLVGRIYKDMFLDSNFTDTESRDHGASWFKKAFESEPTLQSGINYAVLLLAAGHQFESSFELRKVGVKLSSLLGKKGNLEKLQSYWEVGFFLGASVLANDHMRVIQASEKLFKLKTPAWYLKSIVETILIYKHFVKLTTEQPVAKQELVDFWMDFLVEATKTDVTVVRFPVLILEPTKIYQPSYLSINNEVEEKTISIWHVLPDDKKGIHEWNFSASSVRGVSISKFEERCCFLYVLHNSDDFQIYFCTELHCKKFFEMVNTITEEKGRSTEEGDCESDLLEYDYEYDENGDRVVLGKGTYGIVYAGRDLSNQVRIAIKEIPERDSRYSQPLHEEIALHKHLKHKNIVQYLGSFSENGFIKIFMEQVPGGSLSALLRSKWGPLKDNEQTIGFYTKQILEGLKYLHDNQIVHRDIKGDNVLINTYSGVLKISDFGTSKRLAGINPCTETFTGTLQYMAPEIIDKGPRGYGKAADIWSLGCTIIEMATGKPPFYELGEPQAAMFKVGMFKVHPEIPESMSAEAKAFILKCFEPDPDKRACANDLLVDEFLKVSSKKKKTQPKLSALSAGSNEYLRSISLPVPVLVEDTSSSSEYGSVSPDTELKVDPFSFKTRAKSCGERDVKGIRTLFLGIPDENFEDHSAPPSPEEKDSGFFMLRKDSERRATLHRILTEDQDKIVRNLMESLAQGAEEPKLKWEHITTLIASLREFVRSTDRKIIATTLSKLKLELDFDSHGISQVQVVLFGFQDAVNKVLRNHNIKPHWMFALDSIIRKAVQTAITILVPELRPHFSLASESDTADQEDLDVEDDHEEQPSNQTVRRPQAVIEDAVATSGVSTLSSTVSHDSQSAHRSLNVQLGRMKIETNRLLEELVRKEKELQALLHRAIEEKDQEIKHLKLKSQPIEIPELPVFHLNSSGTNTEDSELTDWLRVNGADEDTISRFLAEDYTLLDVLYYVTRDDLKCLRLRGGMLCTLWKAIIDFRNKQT
Procedure: Figure 3: FIG. 3. Interaction of QRS-C and ASK1-N. A. The cDNA (4 ug each) encoding QRS-F. -N or -C (Myc tagged) cloned in pcDNA3 was transfected into 293 cells in 100-mm dishes with 0.5 ug pcDNA3-HA-ASK1 (a kind gift of Dr. Ichijo, Tokyo university, Japan). Co-immunoprecipitation between HA-ASK1 and QRS was carried out as described previously (11) using anti-HA antibody (Santa Cruz). The precipitated proteins were resolved in 10% SDS-polyacrylamide gel, and the presence of QRS-F and -N, and -C were detected by immunoblotting with anti-QRS (17) and Myc (9E10, Boehringer Mannheim) antibodies, respectively. -B. pcDNA3-QRS-F (4 ug) was co-transfected into 293 cells with pcDNA3-HA-ASK1-F (full length) or -N (N-terminal 649 aa) (4 ug each). The cells were harvested after 24 hrs and the ASK1 peptides were precipitated with anti-HA antibody and co-precipitation of QRS was determined by immunoblotting with anti-QRS antibody. […]
Since ASK1 is the immediate downstream kinase of Daxx, we tested whether QRS also interacts with ASK1. The interaction of the two proteins was determined by co-immunoprecipitation. […] Since the N-terminal 649 aa peptide was previously determined to be a regulatory domain interacting with Daxx, (FIG. 1), we tested whether QRS interacts with ASK1-N or -C. […]

binding result (human Daxx, full-length): binds | binding result [1]: no binding
B1: N-terminal 236 aa extension of human glutaminyl-tRNA synthetase (other, UniProt P47897 1-236, looked up)
chain: MAALDSLSLFTSLGLSEQKARETLKNSALSAQLREAATQAQQTLGSTIDKATGILLYGLASRLRDTRRLSFLVSYIASKKIHTEPQLSAALEYVRSHPLDPIDTVDFERECGVGVIVTPEQIEEAVEAAINRHRPQLLVERYHFNMGLLMGEARAVLKWADGKMIKNEVDMQVLHLLGPKLEADLEKKFKVAKARLEETDRRTAKDVVENGETADQTLSLMEQLRGEALKFHKPGE
notes: range 1-236; LexA fusion in yeast two-hybrid; GST fusion (pGEX4T-2), purified, in the in vitro pull-down; Myc-tagged from pcDNA3 in 293 cells for co-IP; also called QRS-N; LexA-QRS-N
